According to the supplement of paper PMC9112550, “Optimization of the antimicrobial peptide Bac7 by deep mutational scanning” (BMC Biology, 2022):

System: Escherichia coli TOP10
Assay: shrunken log2 fold change of peptide-encoding DNA abundance (4.5 h post-induction vs induction); higher = less antimicrobial activity (less host growth inhibition)
Conditions: time post-induction: 4.5 h; library: site-saturation at positions 5, 18, 19, 20
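Also: peptides expressed intracellularly from a pBAD plasmid library in pooled LB shake-flask culture, induced with 0.3% L-arabinose, DNA abundance read by NGS, three biological replicates, DESeq2 with apeglm shrinkage.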

| Sequence | shrunken log2 fold change |
| --- | --- |
| RRIRSRPPRLPRPRPRPNQMPRP | 0.0306 |
| RRIRDRPPRLPRPRPRPDCVPRP | 0.381 |
| RRIRTRPPRLPRPRPRPLLAPRP | 0.282 |
| RRIRARPPRLPRPRPRPMEWPRP | 0.259 |
| RRIRPRPPRLPRPRPRPLEFPRP | -0.241 |
| RRIRFRPPRLPRPRPRPVYQPRP | -0.0402 |
| RRIRDRPPRLPRPRPRPKGYPRP | -0.097 |
| RRIRWRPPRLPRPRPRPQCEPRP | -0.0451 |
| RRIRHRPPRLPRPRPRPTYYPRP | -0.0104 |
| RRIRWRPPRLPRPRPRPCVLPRP | -0.0369 |
| RRIRLRPPRLPRPRPRPIAFPRP | -0.14 |
| RRIRIRPPRLPRPRPRPYDNPRP | 0.0332 |
| RRIRNRPPRLPRPRPRPSEQPRP | -0.288 |
| RRIRKRPPRLPRPRPRPDQKPRP | 0.401 |
| RRIRHRPPRLPRPRPRPENDPRP | 0.00527 |
| RRIRYRPPRLPRPRPRPTSNPRP | -0.276 |
| RRIRYRPPRLPRPRPRPLDVPRP | 0.0153 |
| RRIRIRPPRLPRPRPRPVNQPRP | 0.0745 |
| RRIRDRPPRLPRPRPRPQKLPRP | -0.307 |
| RRIRFRPPRLPRPRPRPTYWPRP | 0.385 |
| RRIRCRPPRLPRPRPRPQMFPRP | -0.155 |
| RRIRDRPPRLPRPRPRPDCMPRP | 0.781 |
| RRIRQRPPRLPRPRPRPYNSPRP | -0.198 |
| RRIRGRPPRLPRPRPRPLHGPRP | 0.212 |
| RRIRVRPPRLPRPRPRPNGRPRP | 0.222 |

| Sequence | shrunken log2 fold change |
| --- | --- |
| RRIRLRPPRLPRPRPRPHTKPRP | -0.422 |
| RRIRTRPPRLPRPRPRPFNAPRP | -0.344 |
| RRIRRRPPRLPRPRPRPWMHPRP | 0.103 |
| RRIRCRPPRLPRPRPRPWPFPRP | -0.121 |
| RRIRIRPPRLPRPRPRPESKPRP | -0.208 |
| RRIRNRPPRLPRPRPRPKAKPRP | 0.146 |
| RRIRPRPPRLPRPRPRPRYLPRP | -0.402 |
| RRIRCRPPRLPRPRPRPDPHPRP | -0.015 |
| RRIRARPPRLPRPRPRPSKKPRP | 0.23 |
| RRIRGRPPRLPRPRPRPNTLPRP | -0.145 |
| RRIRERPPRLPRPRPRPNVKPRP | -0.195 |
| RRIRNRPPRLPRPRPRPQFNPRP | -0.0424 |
| RRIRYRPPRLPRPRPRPFYVPRP | -0.602 |
| RRIRFRPPRLPRPRPRPIFHPRP | -0.295 |
| RRIRLRPPRLPRPRPRPDAYPRP | -0.281 |
| RRIRWRPPRLPRPRPRPHAYPRP | -0.349 |
| RRIRMRPPRLPRPRPRPERRPRP | 0.689 |
| RRIRSRPPRLPRPRPRPRFAPRP | 0.24 |
| RRIRMRPPRLPRPRPRPHTMPRP | 0.124 |
| RRIRNRPPRLPRPRPRPSILPRP | -0.151 |
| RRIRYRPPRLPRPRPRPWKNPRP | -0.458 |
| RRIRTRPPRLPRPRPRPCDMPRP | -0.729 |
| RRIRMRPPRLPRPRPRPLENPRP | 0.0866 |
| RRIRGRPPRLPRPRPRPYSYPRP | -0.0264 |
| RRIRSRPPRLPRPRPRPIHSPRP | -0.567 |

| Sequence | shrunken log2 fold change |
| --- | --- |
| RRIRHRPPRLPRPRPRPDINPRP | -0.0579 |
| RRIRFRPPRLPRPRPRPKGQPRP | 0.105 |
| RRIRARPPRLPRPRPRPIPSPRP | -0.156 |
| RRIRMRPPRLPRPRPRPDFRPRP | 0.146 |
| RRIRQRPPRLPRPRPRPMRNPRP | -0.0579 |
| RRIRVRPPRLPRPRPRPQNHPRP | -0.608 |
| RRIRPRPPRLPRPRPRPGRFPRP | 0.434 |
| RRIRQRPPRLPRPRPRPAEGPRP | 0.045 |
| RRIRHRPPRLPRPRPRPVCHPRP | -0.198 |
| RRIRMRPPRLPRPRPRPICMPRP | 0.024 |
| RRIRFRPPRLPRPRPRPGPVPRP | 0.266 |
| RRIRPRPPRLPRPRPRPWAAPRP | 0.126 |
| RRIRSRPPRLPRPRPRPPFMPRP | -0.0803 |
| RRIRVRPPRLPRPRPRPSFDPRP | -0.269 |
| RRIRIRPPRLPRPRPRPVGFPRP | -0.182 |
| RRIRYRPPRLPRPRPRPYCGPRP | -0.456 |
| RRIRGRPPRLPRPRPRPLSLPRP | 0.419 |
| RRIRCRPPRLPRPRPRPALMPRP | -0.011 |
| RRIRFRPPRLPRPRPRPFCKPRP | -0.374 |
| RRIRQRPPRLPRPRPRPCKKPRP | 0.0212 |
| RRIRSRPPRLPRPRPRPVWSPRP | 0.0126 |
| RRIRTRPPRLPRPRPRPGPSPRP | 0.438 |
| RRIRPRPPRLPRPRPRPGEKPRP | -0.0882 |
| RRIRTRPPRLPRPRPRPCHQPRP | -0.172 |
| RRIRERPPRLPRPRPRPHCYPRP | -0.291 |

| Sequence | shrunken log2 fold change |
| --- | --- |
| RRIRYRPPRLPRPRPRPAHAPRP | 0.154 |
| RRIRVRPPRLPRPRPRPWFQPRP | -0.139 |
| RRIRLRPPRLPRPRPRPVMVPRP | -0.0863 |
| RRIRGRPPRLPRPRPRPSCGPRP | 0.451 |
| RRIRVRPPRLPRPRPRPAPWPRP | 0.395 |
| RRIRCRPPRLPRPRPRPIMPPRP | -0.11 |
| RRIRFRPPRLPRPRPRPIQGPRP | 0.0616 |
| RRIRQRPPRLPRPRPRPQYQPRP | -1.46 |
| RRIRDRPPRLPRPRPRPGYNPRP | -0.0937 |
| RRIRRRPPRLPRPRPRPFSWPRP | -0.469 |
| RRIRVRPPRLPRPRPRPRVHPRP | 1.62 |
| RRIRIRPPRLPRPRPRPCERPRP | -0.0509 |
| RRIRQRPPRLPRPRPRPYTVPRP | -0.104 |
| RRIRIRPPRLPRPRPRPVLCPRP | -0.0142 |
| RRIRPRPPRLPRPRPRPHIKPRP | -0.454 |
| RRIRFRPPRLPRPRPRPCFKPRP | -0.426 |
| RRIRLRPPRLPRPRPRPDISPRP | 0.0207 |
| RRIRVRPPRLPRPRPRPHFNPRP | -0.705 |
| RRIRERPPRLPRPRPRPIYIPRP | -0.138 |
| RRIRDRPPRLPRPRPRPYMYPRP | -0.194 |
| RRIRGRPPRLPRPRPRPQTKPRP | 0.8 |
| RRIRRRPPRLPRPRPRPPQCPRP | 1.55 |
| RRIRQRPPRLPRPRPRPVSEPRP | -0.202 |
| RRIRKRPPRLPRPRPRPNGHPRP | -0.0369 |
| RRIRPRPPRLPRPRPRPVADPRP | 0.295 |

| Sequence | shrunken log2 fold change |
| --- | --- |
| RRIRWRPPRLPRPRPRPTKEPRP | 0.177 |
| RRIRLRPPRLPRPRPRPYHHPRP | -0.398 |
| RRIRKRPPRLPRPRPRPIGKPRP | 0.0962 |
| RRIRNRPPRLPRPRPRPRYWPRP | 0.0625 |
| RRIRSRPPRLPRPRPRPFLKPRP | -0.632 |
| RRIRYRPPRLPRPRPRPWCTPRP | -1.06 |
| RRIRNRPPRLPRPRPRPIDFPRP | -0.413 |
| RRIRFRPPRLPRPRPRPAIAPRP | 0.0519 |
| RRIRLRPPRLPRPRPRPREAPRP | 0.641 |
| RRIRNRPPRLPRPRPRPQSLPRP | -0.139 |
| RRIRWRPPRLPRPRPRPSYMPRP | -0.502 |
| RRIRMRPPRLPRPRPRPERTPRP | 0.00114 |
| RRIRSRPPRLPRPRPRPPTGPRP | 0.369 |
| RRIRIRPPRLPRPRPRPTYGPRP | -0.548 |
| RRIRRRPPRLPRPRPRPADPPRP | 0.403 |
| RRIRSRPPRLPRPRPRPPKWPRP | 0.329 |
| RRIRERPPRLPRPRPRPYRNPRP | -0.166 |
| RRIRCRPPRLPRPRPRPIFCPRP | -0.339 |
| RRIRGRPPRLPRPRPRPVFMPRP | 0.0348 |
| RRIRIRPPRLPRPRPRPKEYPRP | -0.728 |
| RRIRDRPPRLPRPRPRPKPNPRP | 0.45 |
| RRIRGRPPRLPRPRPRPNIAPRP | 0.197 |
| RRIRFRPPRLPRPRPRPCPSPRP | -0.0894 |
| RRIRNRPPRLPRPRPRPHTTPRP | -0.235 |
| RRIRARPPRLPRPRPRPEPLPRP | 0.284 |
